Legend:
Assay in all cases: SEC
IBB-nucleoplasmin = IBB-nucleoplasmin (UniProt P52292)
M9-βgal = M9-βgal (UniProt P09651)
IBB-βgal = IBB-βgal (UniProt P52292)
Thyroglobulin-NLS = biological target: Thyroglobulin-NLS

Chain of WT importin β (Q14974 whole entry): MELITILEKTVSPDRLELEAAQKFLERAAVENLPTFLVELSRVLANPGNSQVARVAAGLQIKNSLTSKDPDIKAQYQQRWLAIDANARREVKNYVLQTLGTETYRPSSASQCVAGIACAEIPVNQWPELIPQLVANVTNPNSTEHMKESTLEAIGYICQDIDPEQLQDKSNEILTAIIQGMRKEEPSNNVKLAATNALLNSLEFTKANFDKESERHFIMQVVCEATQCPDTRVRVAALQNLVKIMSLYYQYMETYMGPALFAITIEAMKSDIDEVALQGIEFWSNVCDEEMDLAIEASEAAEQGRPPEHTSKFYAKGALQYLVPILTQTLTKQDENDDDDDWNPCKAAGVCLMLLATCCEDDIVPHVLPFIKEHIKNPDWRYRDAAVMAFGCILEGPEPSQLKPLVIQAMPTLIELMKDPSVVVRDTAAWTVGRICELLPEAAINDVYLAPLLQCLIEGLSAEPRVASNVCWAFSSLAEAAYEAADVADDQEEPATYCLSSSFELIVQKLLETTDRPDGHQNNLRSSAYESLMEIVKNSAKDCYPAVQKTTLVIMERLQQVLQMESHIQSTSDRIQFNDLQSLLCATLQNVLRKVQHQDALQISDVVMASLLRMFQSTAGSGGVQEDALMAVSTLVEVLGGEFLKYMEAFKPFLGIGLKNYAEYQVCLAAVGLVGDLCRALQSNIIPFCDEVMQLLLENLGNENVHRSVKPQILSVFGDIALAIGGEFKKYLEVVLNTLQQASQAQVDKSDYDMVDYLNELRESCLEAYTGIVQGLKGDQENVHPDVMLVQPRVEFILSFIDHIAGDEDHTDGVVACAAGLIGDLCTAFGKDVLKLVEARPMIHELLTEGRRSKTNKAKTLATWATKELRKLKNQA
Chain of WT transportin (Q92973 whole entry): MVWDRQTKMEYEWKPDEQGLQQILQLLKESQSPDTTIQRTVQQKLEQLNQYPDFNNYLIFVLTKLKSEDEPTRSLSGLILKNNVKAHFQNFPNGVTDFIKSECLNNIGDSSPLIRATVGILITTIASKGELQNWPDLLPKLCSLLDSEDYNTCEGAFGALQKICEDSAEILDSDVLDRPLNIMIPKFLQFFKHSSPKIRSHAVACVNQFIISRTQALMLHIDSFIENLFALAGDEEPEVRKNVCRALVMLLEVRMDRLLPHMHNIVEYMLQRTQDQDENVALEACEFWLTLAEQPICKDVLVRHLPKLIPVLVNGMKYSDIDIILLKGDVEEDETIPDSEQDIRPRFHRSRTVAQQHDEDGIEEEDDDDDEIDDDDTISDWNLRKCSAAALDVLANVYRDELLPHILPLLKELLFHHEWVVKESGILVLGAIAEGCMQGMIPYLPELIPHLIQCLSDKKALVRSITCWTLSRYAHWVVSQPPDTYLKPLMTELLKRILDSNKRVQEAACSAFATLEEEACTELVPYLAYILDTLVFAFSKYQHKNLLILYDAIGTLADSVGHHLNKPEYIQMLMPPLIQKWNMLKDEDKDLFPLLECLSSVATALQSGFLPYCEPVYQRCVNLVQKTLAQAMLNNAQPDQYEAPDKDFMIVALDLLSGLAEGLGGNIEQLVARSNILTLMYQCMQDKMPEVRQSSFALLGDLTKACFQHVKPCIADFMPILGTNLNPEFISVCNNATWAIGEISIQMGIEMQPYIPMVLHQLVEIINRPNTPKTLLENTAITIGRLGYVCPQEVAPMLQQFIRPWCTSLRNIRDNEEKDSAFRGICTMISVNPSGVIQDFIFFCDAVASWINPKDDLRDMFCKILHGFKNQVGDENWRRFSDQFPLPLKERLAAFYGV

Q: Which stoichiometry N (IBB-nucleoplasmin) does the source give for “IBB-nucleoplasmin (from UniProt P52292 1-65; P05221 1-149)” here?
A: The stoichiometry N was 10.

Q: Which stoichiometry N (receptors per cargo) (M9-βgal) does the source give for “WT transportin (from UniProt Q92973 1-898) (natural protein)” here?
A: The stoichiometry N (receptors per cargo) was 4.

Q: With “WT importin β (from UniProt Q14974 1-876) (natural protein)” as the substance, how does the stoichiometry N (receptors per cargo) (IBB-βgal) read?
A: Its stoichiometry N (receptors per cargo) is 4.

Q: And the stoichiometry N (receptors per cargo) (IBB-nucleoplasmin)?
A: The stoichiometry N (receptors per cargo) was 5.

Q: With Thyroglobulin-NLS as the substance, how does the stoichiometry N (Thyroglobulin-NLS) read?
A: The stoichiometry N was 2.

Q: M9-βgal (from UniProt P09651-2 255-320) was tested. Which stoichiometry N (M9-βgal) did it give?
A: The stoichiometry N was 4.

Reference: paper PMC2173498
